Results: PMC12700550, “DLL4^+ neutrophils promote Notch1-mediated endothelial PANoptosis to exacerbate acute lung injury in sepsis” (The Journal of Clinical Investigation, 2025)
Several values for one entry are separate records, joined by “and”; a condition that tells them apart may be missing. Equal values may be shown once.

Columns and labels:
p-MLKL = assay: p-MLKL/MLKL in lungs of CLP mice, Western blot; type: in vivo, mouse; details: 10 mg/kg NDI, 20 h; for lung p-MLKL/MLKL (Figure 5F): individual mice, 10 mg/kg
Protocol: Sepsis was induced in mice by cecal ligation and puncture (CLP) as described previously ([45], [46]). Mice were anesthetized with isoflurane to a surgical plane and placed in a supine position. CLP was performed through a midline laparotomy. The abdomen was shaved and disinfected. Through a 2 cm midline incision, the cecum was exposed and then ligated with a 4-0 silk suture 1 cm proximal from the distal cecal extremity. For 20-hour CLP experiments, the cecum was punctured twice with a 22-gauge needle. A small amount of cecal content was extruded through both holes, and the ligated cecum was returned to the peritoneal cavity. The wound was closed in layers. For 10-day sepsis survival studies, the cecum was punctured once with a 22-gauge needle. A small amount of cecal content was extruded. Mice were allocated to the vehicle and adoptive transfer of DLL4^+ neutrophils or DLL4^– neutrophils groups. Adoptive transfer mice received a retro-orbital injection of 1 × 10^6 cells per mouse DLL4^+ neutrophils or DLL4^– neutrophils in […] phosphate-buffered saline (PBS) immediately after abdominal closure in both the 20-hour experiments and the survival study. Vehicle groups received an equivalent volume of PBS, while treatment groups received NDI 10 mg/kg in […] PBS via retro-orbital injection after CLP. This dose was chosen primarily on the basis of our laboratory’s prior experience, we have consistently used this dose in mouse CLP models with reproducible efficacy and without observable toxicity ([39], [44]). Sham-operated animals underwent a laparotomy without CLP. After closure, the mice received a subcutaneous injection of 0.5 mL of normal saline to overcome surgery-induced dehydration. […]
PVECs and lung tissue were collected in previous steps. Whole-cell proteins were extracted, and the protein concentration was measured using an ABC protein assay kit (catalog 5000002, Bio-Rad). […] Bands were detected using an Odyssey FC Dual-Mode Imaging system 2800 (LI-COR).

DLL4 = DLL4 mRNA in eCIRP-treated BMDNs, qPCR; type: cell-based, mouse; details: for DLL4 mRNA: DLL4-CIRP
Protocol: mRNA was extracted from lung tissues with TRIzol reagent (Invitrogen, Thermo Fisher Scientific). An equal amount ([…]) of mRNA was reverse-transcribed into cDNA using the reverse transcriptase enzyme (Invitrogen, Thermo Fisher Scientific). qPCR was performed from the diluted cDNA templates with forward and reverse primers (Supplemental Table 4) and SYBR Green PCR Master Mix (Applied Biosystems, Thermo Fisher Scientific) using an Applied Biosystems 7300 real-time PCR machine. Mouse β-actin served as an internal control gene for normalization. Relative expression of mRNA was represented as fold change in comparison with the sham group.
BMDNs (1 × 10^6) were treated with eCIRP (1 μg/mL) for 12 hours, and DLL1, DLL3, and DLL4 were analyzed by qPCR.

[1] = tested on: DLL4 expression on human neutrophils; assay: Frequency of DLL4^+ neutrophils (CD66^+DLL4^+), human peripheral blood neutrophils; type: cell-based; details: 12 h
Source text: Blood samples were obtained from the deidentified healthy human subjects. Written informed consent was obtained from all participants, and human subject protocols were approved by the Institutional Review Board of the North Shore University Hospital. Five milliliters of blood was collected by venipuncture and placed in EDTA blood collection tubes. We isolated the neutrophils from fresh blood samples by immunomagnetic cell separation using an EasySep Direct Human Neutrophil Isolation Kit (catalog 19666, Stem Cell Technologies). A total of 20 × 10^6 neutrophils were obtained from 5 mL of blood. Neutrophils (1 × 10^6 cells/mL) were stimulated with 1 μg/mL eCIRP for 12 hours. The cells were then stained with anti-CD66b (clone G10F5, catalog 984102, BioLegend) and DLL4 antibodies (clone MHD4-46, catalog 346506, BioLegend), and the frequencies (percentage) of DLL4^+ neutrophils were detected by flow cytometry.

Molecule | lung p-MLKL/MLKL (Figure 5F) (p-MLKL; DLL4^+ neutrophils + CLP) | effect on lung p-MLKL (p-MLKL; DLL4^+ neutrophils/sepsis) | lung p-MLKL/MLKL (Figure 5F) (p-MLKL; DLL4^– neutrophils + CLP) | effect on DLL4 expression (DLL4; BMDNs, eCIRP 1 μg/mL, 12 h) | DLL4 mRNA (DLL4; replicate 1) | DLL4 mRNA (DLL4; replicate 2) | DLL4 mRNA (DLL4; replicate 3) | DLL4 mRNA (DLL4; replicate 4) | DLL4 mRNA (DLL4; replicate 5) | DLL4 mRNA (DLL4; replicate 6) | DLL4 mRNA (DLL4; replicate 7) | DLL4 mRNA (DLL4; replicate 8) | frequency of DLL4^+ neutrophils (Figure 1K) ([1]; human neutrophils 1 × 10^6/mL, eCIRP 1 μg/mL, individual replicates) | effect on frequency of DLL4^+ neutrophils ([1]; human peripheral blood neutrophils, 1 μg/mL)
ECAGSPCHNGGTCEDGI [NDI] | 1.846 and 1.579 and 1.945 and 1.685 and 1.856 and 1.651 and 0.9594 | attenuated the expression/activation | 1.556 and 0.2214 and 0.5541 and 0.7582 and 0.5214 and 0.9855 | – | – | – | – | – | – | – | – | – | – | –
eCIRP: extracellular cold-inducible RNA-binding protein; recombinant murine, produced in our laboratory (protein, UniProt P60824 1-172, looked up) Cold-inducible RNA-binding …: MASDEGKLFVGGLSFDTNEQALEQVFSKYGQISEVVVVKDRETQRSRGFGFVTFENIDDAKDAMMAMNGKSVDGRQIRVDQAGKSSDNRSRGYRGGSAGGRGFFRGGRSRGRGFSRGGGDRGYGGGRFESRSGGYGGSRDYYASRSQGGSYGYRSSGGSYRDSYDSYATHNE | – | – | – | selectively upregulated DLL4 | 2.784 | 1.987 | 1.949 | 2.578 | 2.145 | 5.912 | 4.801 | 3.122 | 16% and 10.3% and 4.81% and 7.94% and 7.27% and 10.4% and 15.89% and 20.5% and 19.83% | significantly increased the frequency of DLL4^+ neutrophils
